We go through 1 molecule from article PMC4944944, “The Calponin Family Member CHDP-1 Interacts with Rac/CED-10 to Promote Cell Protrusions” (PLoS Genetics, 2016).

For this test, the target named is T1, Flag-tagged full-length CHDP-1 (C. elegans, UniProt P91027 1-338).
T1 construct: CHDP-1 (C10G11.7), single type III calponin homology domain protein of C. elegans; fragment limits show 338 residues; Cloned into a modified pFLAG-CMV-2 vector; In the self-association co-IP the second copy carried Myc (modified pcDNA3.1/myc-HIS(-) vector) in place of Flag; also called FLAG-CHDP-1; C10G11.7; source: HEK293T, transfected, in lysate
T1 sequence (looked up): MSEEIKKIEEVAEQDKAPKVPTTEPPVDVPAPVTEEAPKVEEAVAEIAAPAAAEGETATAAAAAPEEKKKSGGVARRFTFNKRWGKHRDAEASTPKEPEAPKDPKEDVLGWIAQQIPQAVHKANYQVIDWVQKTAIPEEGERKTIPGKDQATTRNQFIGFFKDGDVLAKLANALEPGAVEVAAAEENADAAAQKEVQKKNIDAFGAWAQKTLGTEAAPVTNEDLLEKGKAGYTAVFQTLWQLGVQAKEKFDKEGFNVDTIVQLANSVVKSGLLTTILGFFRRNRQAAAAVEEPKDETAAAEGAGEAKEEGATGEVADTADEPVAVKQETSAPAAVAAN
The experiment in a line: co-IP; Flag-CHDP-1 and Myc-CED-10 expressed in HEK293T cells, affinity purified, mixed together, then co-immunoprecipitated with Flag or Myc antibodies. The conditions noted are these: both partners purified.

B1: Myc-tagged CED-10 (natural protein)
chain: not shown
notes: CED-10, Rac1 homolog (Rho family small GTPase) of C. elegans; cDNA from Dr. Yuji Kohara; Cloned into a modified pcDNA3.1/myc-HIS(-) vector; also called Rac1/CED-10; worm Rac1 homolog; source: HEK293T, transfected, in lysate
With B1, the binding result is recorded as “binds”.
